The results in this text go back to paper PMC9060465, “Structural determinants of dual incretin receptor agonism by tirzepatide” (Proceedings of the National Academy of Sciences of the …, 2022).

Experiment [1] deals with mouse GLP-1R, endogenous in pancreatic islets (mouse (endogenous in pancreatic islets)) (UniProt O35659).
In experiment [2] the target is isolated extracellular domain (ECD) of human GIPR, amino acids 26 to 138 (human) (UniProt P48546). As to the kind of experiment: SPR. On the technique in general: SPR reads the build-up and loss of mass on a sensor chip optically.
isolated extracellular domain (ECD) of human GIPR, amino acids 26 to 138 (human), sequence (P48546 26-138): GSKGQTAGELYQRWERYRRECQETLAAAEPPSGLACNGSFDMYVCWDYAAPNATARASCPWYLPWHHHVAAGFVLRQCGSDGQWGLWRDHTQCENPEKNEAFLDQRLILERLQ
Experiment [3] addresses human GLP-1R expressed in HEK293 cells (human) (UniProt P43220). The experiment is described as follows: radioligand binding.
Experiment [4] has the same target. The settings on record: ligand.
Experiment [5] addresses isolated extracellular domain (ECD) of human GLP-1R, amino acids 24 to 145 (human) (UniProt P43220). The experiment is described as follows: SPR.
Experiment [6] concerns the target human GIPR expressed in HEK293 cells (human) (UniProt P48546). As to the kind of experiment: radioligand binding.

mouse GLP-1R, endogenous in pancreatic islets (mouse (endogenous in pancreatic islets)), sequence (O35659 22-463): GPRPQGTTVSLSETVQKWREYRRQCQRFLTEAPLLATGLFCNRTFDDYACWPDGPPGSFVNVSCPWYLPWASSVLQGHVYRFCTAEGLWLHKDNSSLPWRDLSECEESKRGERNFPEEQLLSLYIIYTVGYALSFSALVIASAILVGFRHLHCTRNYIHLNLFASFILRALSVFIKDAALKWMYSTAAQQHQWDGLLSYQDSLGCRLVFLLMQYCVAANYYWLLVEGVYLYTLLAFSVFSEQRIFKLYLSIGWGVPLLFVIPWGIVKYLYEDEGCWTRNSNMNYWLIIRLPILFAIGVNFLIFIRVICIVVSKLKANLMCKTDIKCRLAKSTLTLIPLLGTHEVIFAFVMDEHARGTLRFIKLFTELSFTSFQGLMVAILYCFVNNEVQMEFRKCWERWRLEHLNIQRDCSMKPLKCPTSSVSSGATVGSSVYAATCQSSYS
human GLP-1R expressed in HEK293 cells (human), sequence (P43220 24-463): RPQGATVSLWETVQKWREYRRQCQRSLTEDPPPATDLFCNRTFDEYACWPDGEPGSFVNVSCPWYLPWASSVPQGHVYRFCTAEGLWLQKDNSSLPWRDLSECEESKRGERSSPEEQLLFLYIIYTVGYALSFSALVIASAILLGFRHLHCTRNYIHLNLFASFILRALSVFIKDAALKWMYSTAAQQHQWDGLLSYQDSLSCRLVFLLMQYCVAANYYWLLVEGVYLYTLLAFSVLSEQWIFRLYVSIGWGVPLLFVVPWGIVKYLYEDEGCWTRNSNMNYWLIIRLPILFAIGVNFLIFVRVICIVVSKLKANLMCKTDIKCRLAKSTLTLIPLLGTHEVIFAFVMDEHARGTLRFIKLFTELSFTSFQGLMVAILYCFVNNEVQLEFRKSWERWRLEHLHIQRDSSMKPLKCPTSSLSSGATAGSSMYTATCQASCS
human GIPR expressed in HEK293 cells (human), sequence (P48546 22-466): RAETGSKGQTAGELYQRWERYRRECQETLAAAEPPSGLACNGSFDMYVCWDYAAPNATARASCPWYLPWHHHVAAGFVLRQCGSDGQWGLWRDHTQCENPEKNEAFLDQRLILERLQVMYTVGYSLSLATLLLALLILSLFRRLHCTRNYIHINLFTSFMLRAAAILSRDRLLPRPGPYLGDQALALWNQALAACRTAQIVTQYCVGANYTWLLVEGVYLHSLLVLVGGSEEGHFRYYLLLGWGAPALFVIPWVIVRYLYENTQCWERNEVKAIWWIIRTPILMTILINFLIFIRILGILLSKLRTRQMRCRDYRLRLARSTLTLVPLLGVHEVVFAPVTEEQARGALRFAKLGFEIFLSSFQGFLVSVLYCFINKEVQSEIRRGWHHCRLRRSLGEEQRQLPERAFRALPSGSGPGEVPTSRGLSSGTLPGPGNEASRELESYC
isolated extracellular domain (ECD) of human GLP-1R, amino acids 24 to 145 (human), sequence (P43220 24-145): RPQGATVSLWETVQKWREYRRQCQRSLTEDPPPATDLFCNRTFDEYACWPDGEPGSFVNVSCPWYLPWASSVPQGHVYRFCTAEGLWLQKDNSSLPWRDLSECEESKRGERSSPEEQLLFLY

In experiment [1], tirzepatide^AF647 (peptide) came in with an intracellular fluorescence intensity of islet cells from wild-type mice, 30 nM labelled ligand for 30 min, confocal microscopy; negligible (≤4.0) after exendin-4(9-39) or in Glp-1r null islets of 46.

In turn, GLP-1^AF647 (ligand) showed an intracellular fluorescence intensity of islet cells from wild-type mice, 30 nM labelled ligand for 30 min, confocal microscopy; negligible (≤4.0) after exendin-4(9-39) or in Glp-1r null islets in experiment [1] of 104.

With tirzepatide (LY3298176) (peptide), the equilibrium dissociation constant (Kd) in experiment [2] amounted to 4200 nM. Further, in experiment [3], the other worked out at 5 fold.

Substance glucagon-like peptide-1 (GLP-1) had an inhibition constant Ki in experiment [4] of 0.594 nM.

In experiment [1], tirzepatide^ΔC20,Y1H-AF647 (peptide) gave an intracellular fluorescence intensity of islet cells from wild-type mice, 30 nM labelled ligand for 30 min, confocal microscopy; negligible (≤4.0) after exendin-4(9-39) or in Glp-1r null islets of 85.3.

With “tirzepatide analog lacking the lipid moiety (TZP^ΔC20) (peptide)”, the Kd in experiment [2] worked out at 1700 nM; in experiment [5], 111 nM. Moreover, the other in experiment [6] is 4 fold; in experiment [3], 5 fold.

Broadly, the Kd is the concentration at which binding is half-saturated. What is called Ki is the dissociation constant of the complex between target and ligand, obtained from inhibition or displacement. Low readings indicate higher affinity, high ones lower affinity.
